Measurements published in publication PMC6167328, “Elucidating a role for the cytoplasmic domain in the Mycobacterium tuberculosis mechanosensitive channel of large conductance” (Scientific Reports, 2018).

Target: the molecule itself
Assay: crystal structure

B1: C-terminal domain truncation of the Mycobacterium tuberculosis mechanosensitive channel of large conductance (MtMscLΔC) (domain or fragment)
chain: MLKGFKEFLARGNIVDLAVAVVIGTAFTALVTKFTDSIITPLINRIGVNAQSDVGILRIGIGGGQTIDLNVLLSAAINFFLIAFAVYFLVVLPYNTLRKKG
notes: Residues 97-101 are not resolved in the model; also called Mt ∆C
  stoichiometry N: 5
